Assay results reported in the supplement of paper PMC12764529.
± gives the half width of the 95% confidence interval.

Assay: folding stability dG unfold from trypsin proteolysis; higher = more stable
Outline: (§1)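 Unfolding free energy was derived, per protease or combined, by relating Bayesian-fitted K50 values from sequencing counts to a sequence-predicted unfolded-state K50 and a shared folded-state K50. The underlying digests exposed cysteine-free mini-proteins under 80 residues, in a PA-tagged cDNA display construct, to trypsin and chymotrypsin at 11 threefold-diluted concentrations and to a no-protease condition. A filter kept only designs with AlphaFold2 dimer inter-PAE above 15.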

Sequence | folding stability dG unfold [kcal/mol]
SKVKVEVVEVKYNKETKKFTVKLKVYNEDGELIEEIELEFPESEEEVLKKAEELAKELAEKYGLKIEIKPSA [r9_31_TrROS_Hall] | 2.41 ± 0.12
SAGGGSMVTQTEFTLPDGTKVSESTLPDGTVTTTITDPTNPTVTTSPVRTVSPGPLSPANPALVAALSAGGS [r16_482_JUSTAS] | -1.09 ± 0.18
SAGGKKFYVEVKINLKDKTIYLIKEVKPGNLEKLIKEIEKKGIKEAGIDEIKIFPKDGYIEIKGGEKSAGGS [r8_219_TrMRF] | 0.279 ± 0.061
SAGGSAGGSAGKQPIEMWFMFPNGVAIVLRIKVDPPSPKAKIDAIEVVPVRDPDNGKWRFSAGGSAGGSAGG [r11_919_TrROS] | 0.566 ± 0.11
SAGGSAGVPPGGRVRVLVYNPLTGEVREVELPVGSLEEFLRGANLPAPLPDGRPAPVVVEILEVEPSAGGSA [r15_797_TrMRF] | 1.77 ± 0.14
SAGGPYEFWFTITIDYPDLTPKQAVEEARKILRKLGFEITDIPVQVDPDPGWITVMARITIRPPEDASAGGS [r16_287_TrROS] | 3.31 ± 0.063
SAGGSAGMPDPPLEGLKEALREALAANPGEEVTLTVPRADGRTLTVRGTKDGGIEITLPDGTRIALSAGGSA [r15_73_JUSTAS] | 1.58 ± 0.036
SAGGMPVTVTLDLSDLTPEEIERLLTEAVEAHPDPAAVTVRVKTDDPALEAAVRAAAEALPAVAVTLESAGG [r13_718_JUSTAS] | -0.86 ± 0.54
SAGGSAGGSAGGGYIEIDSVHLHPDGTVTRTRAVLEVDENGNVRVLSAETETVPLDDILGSAGGSAGGSAGG [r7_521_TrMRF] | 2.28 ± 0.14
SAGGSAGGSAMDAEEIADMIKEILRKQFPNVKITEITVERRPPGNYYVEARVPDGNQRTIPISAGGSAGGSA [r18_423_TrROS] | -0.483 ± 0.15
SAGGSAGGSAGTLEALKNLKPGETVTLRVELRVERRYLDPNGKEHTEEVSTVTLELTLKPSAGGSAGGSAGG [r11_36_TrROS_Hall] | 3.22 ± 0.11
SAGGMPIILLEEKKLPNGEPVYRITLLERDPNDGSWRPIEEDELKTKEEAEERAKAIAEKRGVELLKSAGGS [r16_512_JUSTAS] | 1.57 ± 0.026
SAGGSAGGSAEPGPEELAKALAGELEKRFGKPVKEVKAYEIPGEKRYIVTAKLDDGEFTIIASAGGSAGGSA [r18_145_TrMRF] | -0.267 ± 0.28
QRVLPFKNPDGDYWVMIMNPNGDPLVEHRIPNDPEQMEKAIHKLMEQLPNFDPEDLRIAVMNPKNGESQEIS [r1_55_TrROS] | 0.222 ± 0.16
SAGGSAGLRVRLADGSELSVSPIPDKLRVVVTLPNGARIPIDVEDGELVEIVRDPAVPADFYIEEISAGGSA [r15_709_JUSTAS] | 0.419 ± 0.14
SAGGSAGGSAGGSSIRIWIFFPGYFFRITIKPDPGNPNMIKIDITEIIPPDQMDDEDLISAGGSAGGSAGGS [r4_316_TrROS] | 3.53 ± 0.26

Sequence | folding stability dG unfold [kcal/mol]
SAGGMNVTVTVELVPLPDEPVLFVTVETEDGSVSVITFDPATGTATVLKVSPTKTEITTVPAEDILLASAGG [r13_328_TrMRF] | 1.8 ± 0.13
SMVVLPVRYPDLSPEEARAAVEALAAEIEAAVGAEVRVEVEVERAPDGTPVRVLVTATVVIRTAADALLLSA [r9_21_JUSTAS] | 0.946 ± 0.061
SAGMKPPKIEITIEVVEKDGELYVRVKIKLENGEEIEIVMSLDEVKELLKKLFPEITEIEVEEVRLPPKSAG [r5_25_TrROS_Hall] | 2.39 ± 0.12
SAGGSAGGSAGGKPKYKIVEIKYDKETKTVTLKIKLENGETVEITVPPGTSLEDILKALSAGGSAGGSAGGS [r10_984_TrROS_Hall] | 3.57 ± 0.098
SDIEIERDPNMIRIEHTYPFDNYRVKISLYVMVGPDGQFMLMIPIEIELPPPPPTPEKDPNGKEKWKPDASA [r9_456_TrROS] | 2.67 ± 0.21
SAGGMELPPEVKTIAEKLEAEGYDVLAVPVGDSYVIAVDGKVAATPEEFEKLKKIPGVKKLITIDLPSAGGS [r16_275_TrMRF] | 0.432 ± 0.056
SEVVDTFSPPVTGSGEPRDFEIRLIKDENGNPVSVTMFDPVTGVEYPPDVSLEDLGVPPPVVEAFEAARRSS [r1_354_JUSTAS] | -0.48 ± 0.08
SAKITIFFPFDAVKEILDLLKENGVEVNIERHPGNPWYSATITRPDPNGKELPIEIMMFPDHGYVQITLSAG [r14_169_TrROS] | 2.65 ± 0.14
SAGSMHLVEFTGTEEVVDEFLASLPPEVVVERERYPDRWLVRLPPDVPARTITVPTPDGRPVTFTLRLESAG [r5_123_JUSTAS] | -0.851 ± 0.41
SAGGSAGGSAGSMTITITETKKLPNGKTVVTTTKVEVRVFPNGGAIERKTLEVVTEELLGSAGGSAGGSAGG [r17_129_JUSTAS] | 1.34 ± 0.041
SAGGSAGGSSMTFISTSTSPGNGYTYNIYSQPGKVVVTTTAPDGTVSVTTVEVSPDTSVTVTAASAGGSAGG [r6_380_JUSTAS] | 1.16 ± 0.045
SAGGSAGGSAMKYKVTVTTTPPDGTTTTTPTVVDFKSKEEIEEYVKKKAPKDTKVEVEIEPESAGGSAGGSA [r18_60_JUSTAS] | -0.228 ± 0.085
SAGGSAGGSAGGSFKVTYFPGEKLLAVTFPDGSKKIFKIDDKGNPTIIAVIDPDKGKVLPSAGGSAGGSAGG [r7_659_TrMRF] | 1.86 ± 0.034
SAGGSAFPTIAESPGVVKIEPLPDGTIKITFNTSEEAKEKIIEELKKLGNFNVEEDPEKPVLIVKKSAGGSA [r15_554_JUSTAS] | 1.7 ± 0.087
SASESAVVEEEYTIDVTTVTPPGTPTTEPVRLTITRLPPNTVEVTLTAPDGKTVETRVIPLSVSLEELLSAG [r14_559_JUSTAS] | 0.413 ± 0.14

Assay: folding stability dG unfold from chymotrypsin proteolysis; higher = more stable
Outline: as §1

Sequence | folding stability dG unfold [kcal/mol]
SKVKVEVVEVKYNKETKKFTVKLKVYNEDGELIEEIELEFPESEEEVLKKAEELAKELAEKYGLKIEIKPSA [r9_31_TrROS_Hall] | 3.89 ± 0.085
SAGGGSMVTQTEFTLPDGTKVSESTLPDGTVTTTITDPTNPTVTTSPVRTVSPGPLSPANPALVAALSAGGS [r16_482_JUSTAS] | -0.17 ± 0.18
SAGGKKFYVEVKINLKDKTIYLIKEVKPGNLEKLIKEIEKKGIKEAGIDEIKIFPKDGYIEIKGGEKSAGGS [r8_219_TrMRF] | 1.18 ± 0.08
SAGGSAGGSAGKQPIEMWFMFPNGVAIVLRIKVDPPSPKAKIDAIEVVPVRDPDNGKWRFSAGGSAGGSAGG [r11_919_TrROS] | 1.85 ± 0.1
SAGGSAGVPPGGRVRVLVYNPLTGEVREVELPVGSLEEFLRGANLPAPLPDGRPAPVVVEILEVEPSAGGSA [r15_797_TrMRF] | 3.11 ± 0.081
SAGGPYEFWFTITIDYPDLTPKQAVEEARKILRKLGFEITDIPVQVDPDPGWITVMARITIRPPEDASAGGS [r16_287_TrROS] | 3.98 ± 0.044
SAGGSAGMPDPPLEGLKEALREALAANPGEEVTLTVPRADGRTLTVRGTKDGGIEITLPDGTRIALSAGGSA [r15_73_JUSTAS] | 1.52 ± 0.087
SAGGMPVTVTLDLSDLTPEEIERLLTEAVEAHPDPAAVTVRVKTDDPALEAAVRAAAEALPAVAVTLESAGG [r13_718_JUSTAS] | 0.263 ± 0.051
SAGGSAGGSAGGGYIEIDSVHLHPDGTVTRTRAVLEVDENGNVRVLSAETETVPLDDILGSAGGSAGGSAGG [r7_521_TrMRF] | 2.32 ± 0.043
SAGGSAGGSAMDAEEIADMIKEILRKQFPNVKITEITVERRPPGNYYVEARVPDGNQRTIPISAGGSAGGSA [r18_423_TrROS] | 0.286 ± 0.059
SAGGSAGGSAGTLEALKNLKPGETVTLRVELRVERRYLDPNGKEHTEEVSTVTLELTLKPSAGGSAGGSAGG [r11_36_TrROS_Hall] | 3.62 ± 0.054
SAGGMPIILLEEKKLPNGEPVYRITLLERDPNDGSWRPIEEDELKTKEEAEERAKAIAEKRGVELLKSAGGS [r16_512_JUSTAS] | 1.34 ± 0.036
SAGGSAGGSAEPGPEELAKALAGELEKRFGKPVKEVKAYEIPGEKRYIVTAKLDDGEFTIIASAGGSAGGSA [r18_145_TrMRF] | -0.235 ± 0.28
QRVLPFKNPDGDYWVMIMNPNGDPLVEHRIPNDPEQMEKAIHKLMEQLPNFDPEDLRIAVMNPKNGESQEIS [r1_55_TrROS] | 0.868 ± 0.12
SAGGSAGLRVRLADGSELSVSPIPDKLRVVVTLPNGARIPIDVEDGELVEIVRDPAVPADFYIEEISAGGSA [r15_709_JUSTAS] | 1.25 ± 0.043
